The record followed here is patent US11833204B2, “Visible light-activatable nanoparticles for cancer immunotherapy and use thereof” (KOREA INSTITUTE OF SCIENCE AND TECHNOLOGY, priority 2021, dated 2023).

Data set [1] is described as follows: Size analysis of LT-NPs by dynamic light scattering. The format is physicochemical. To be noted: 1 mg/mL in saline, DLS. The method, then: The self-assembled nanoparticles (LT-NPs) prepared in Example 1 were diluted with saline to a concentration of 1 mg/mL and their particle size was analyzed by dynamic light scattering (DLS; Zetasizer Nano ZS, Malvern Instruments).

The subject of data set [2] is CT26 cells. As to the kind of experiment: Apoptosis and necrosis of CT26 cells (Annexin V/PI flow cytometry). The format is cell-based. To be noted: CT26, visible light. The method, then: The degrees of apoptosis and necrosis of cancer cells were quantitatively analyzed to accurately evaluate the anticancer effect of the self-assembled nanoparticles (LT-NPs). First, CT26 cells treated with doxorubicin (DOX), verteporfin (VPF), a mixture of doxorubicin and verteporfin (VPF+DOX) or the self-assembled nanoparticles (LT-NPs) and a laser were prepared as above and treated with 5 μg of Annexin V-FITC and 10 μg of PI solution for 10 min. Then, cells were cultured with a cell fixative for 10 min and further cultured with DAPI for 20 min. The degrees of apoptosis and necrosis were quantitatively analyzed using a flow cytometer (BD FACSVerse, BD bioscience, USA).

The test system of data set [3] is CT26 cells. Briefly: In vivo behaviour and tumor accumulation in CT26 tumor animal model. Also on record: species or system mice. The note with it: 5 mg/kg i.v. As to the method:
[…] nude mice (6 weeks old, 20-25 g, male) bred in a sterile environment were used. The mice were acclimated for 2 weeks prior to starting the experiment. The mice had ad libitum access to food and water in cages maintained at a temperature of 22±2° C. and a humidity of 40-60% on a 12 h light and dark cycle during the experiment. All experimental procedures were performed according to the guidelines of the Institutional Animal Care and Use Committee of the Korea Institute of Science and Technology.
Colon cancer was induced in the male nude mice. To this end, 1×10^6 CT26 cells were subcutaneously inoculated into the left thigh of each mouse to construct a tumor animal model. Thereafter, the tumor was allowed to grow until its volume reached ˜200-250 mm^3 prior to the experiment. For sample administration, the mice were randomly divided into 4 groups, 24 animals per group. Verteporfin (VPF) was intravenously administered at a concentration of 5 mg/kg (“VPF-administered group”) and the self-assembled nanoparticles (LT-NPs) were intravenously administered at a concentration of 5 mg/kg (“LT-NPs-administered group”).
The in vivo behaviors of the drugs in the administered groups were evaluated by near-infrared imaging using an IVIS Lumina system for 0.5-9 h.

Regarding `C=CC1=C(C)/C2=C/C3=NC(Cc4[nH]c(c(CCCCC(=O)OC)c4C)CC4N=C(CC1N2)C(C)=C4CCC(=O)N[C@H](Cc1ccccc1)C(=O)N[C@@H](CCCNC(=N)N)C(=O)N[C@H](CCCNC(=N)N)C(=O)NCC(=O)NC1C[C@@H](OC2C[C@](O)(C(=O)CO)Cc4c(O)c5c(c(O)c42)C(=O)c2c(OC)cccc2C5=O)O[C@@H](C)[C@H]1O)[C@@]1(C)C3=CC=C(C(=O)OC)[C@@H]1C(=O)OC` (stereo partly shown) [LT-NPs, VPF-FRRG(SEQ ID NO: 1)-DOX], the average particle diameter in data set [1] was 87 nm. For the same molecule, in the data set with CT26 cells [2], the “degree of apoptosis (and necrosis)” value is given as “significantly higher than that caused by the conventional drugs”; the “proportions of early apoptosis, late apoptosis and necrosis” value is “lower proportions of late apoptosis and necrosis and a higher proportion of early apoptosis”. Besides, the “degree of apoptosis (and necrosis)” value in the data set with CT26 cells [2] (listed as self-assembled nanoparticles) was “significantly higher apoptosis and necrosis”. Moreover, the “accumulation in cancer cells (histological analysis)” value in the data set on CT26 cells [3] is reported as “accumulated in cancer cells with significantly higher efficacy than the conventional anticancer drug”. For the same molecule, the “fluorescence intensity in cancer cells (near-infrared imaging)” value in the data set with CT26 cells [3] (0.5-9 h, IVIS Lumina) was “higher than those of Group 1 treated with verteporfin”. In addition, the “fluorescence intensity in cancer cells (drug accumulated in tissues)” value in the data set with CT26 cells [3] (liver, lung, spleen, kidney, heart, tumor) is “higher than those of Group 1 treated with verteporfin”.
